# Literature values in paper PMC3505834.
# Target: C3b C3b (Homo sapiens) (UniProt P01024)
# Sequence (P01024 566-670): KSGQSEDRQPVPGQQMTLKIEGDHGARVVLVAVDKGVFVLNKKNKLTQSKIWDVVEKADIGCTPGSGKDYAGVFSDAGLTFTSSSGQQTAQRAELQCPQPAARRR
# CD46, sequence (P15529 35-343): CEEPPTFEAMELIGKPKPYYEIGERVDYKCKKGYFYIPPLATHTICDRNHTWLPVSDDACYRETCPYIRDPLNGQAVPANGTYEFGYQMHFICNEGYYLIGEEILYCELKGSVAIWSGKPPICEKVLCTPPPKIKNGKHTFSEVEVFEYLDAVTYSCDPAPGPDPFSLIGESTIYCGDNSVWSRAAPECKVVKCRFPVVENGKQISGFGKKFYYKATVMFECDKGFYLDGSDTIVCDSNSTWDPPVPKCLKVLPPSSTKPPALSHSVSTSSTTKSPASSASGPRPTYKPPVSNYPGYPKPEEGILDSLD
substance,measurement,value
CD46 (from UniProt P15529),Kd,1000 nM
